Data published in patent US20120058906A1.
One block for each substance: values may come before it.

What was measured:
[1] = target: rHuman HGF R/c-MET/Fc Chimera, CF (R&D Systems Cat#358-MT/CF) (human) (UniProt P08581); experiment: MSD ECL multi-spot assay, antigen spotted on plate, Fab […]; blank spot 2877
[2] = target: rHuman IGF-1 sR (IGF-1 sR), CF (R&D Systems Cat#391-GR) (human) (UniProt P08069); experiment: as above
[3] = target: rHuman ErbB2/Fc Chimera, CF (R&D Systems Cat#1129-ER) (human) (UniProt P04626); experiment: as above
[4] = target: Recombinant Human DLL4 (R&D Systems Cat#1506-D4/CF) (human) (UniProt Q9NR61); experiment: ECL (MSD Multi-Spot) binding, antigen spotted on plate, Fab at […]; blank spot 250
[5] = target: rHuman P-Cadherin/Fc Chimera, CF (R&D Systems Cat#861-PC) (human) (UniProt P22223); experiment: ECL (MSD Multi-Spot) binding, antigen spotted on plate, Fab at 500 nM; blank spot 680
[6] = target: Recombinant Human DLL4 (R&D Systems Cat#1506-D4/CF) (human) (UniProt Q9NR61); experiment: as above
[7] = target: rHuman P-Cadherin/Fc Chimera, CF (R&D Systems Cat#861-PC) (human) (UniProt P22223); experiment: ECL (MSD Multi-Spot) binding, antigen spotted on plate, Fab at […]; blank spot 294
[8] = target: Recombinant Human DLL4 (R&D Systems Cat#1506-D4/CF) (human) (UniProt Q9NR61); experiment: as above
[9] = target: rHuman P-Cadherin/Fc Chimera, CF (R&D Systems Cat#861-PC) (human) (UniProt P22223); experiment: ECL (MSD Multi-Spot) binding, antigen spotted on plate, Fab at 1000 nM; blank spot 1133
[10] = target: Recombinant Human DLL4 (R&D Systems Cat#1506-D4/CF) (human) (UniProt Q9NR61); experiment: as above
[11] = target: Recombinant Human DLL4 (R&D Systems Cat#1506-D4/CF) (human) (UniProt Q9NR61); experiment: ECL (MSD Multi-Spot) binding, antigen spotted on plate, Fab at 125 nM; blank spot 403
[12] = target: rHuman P-Cadherin/Fc Chimera, CF (R&D Systems Cat#861-PC) (human) (UniProt P22223); experiment: ECL (MSD Multi-Spot) binding, antigen spotted on plate, Fab at 7.8 nM; blank spot 316
[13] = target: Recombinant Human DLL4 (R&D Systems Cat#1506-D4/CF) (human) (UniProt Q9NR61); experiment: as above
[14] = target: rHuman P-Cadherin/Fc Chimera, CF (R&D Systems Cat#861-PC) (human) (UniProt P22223); experiment: ECL (MSD Multi-Spot) binding, antigen spotted on plate, Fab at 250 nM; blank spot 590
[15] = target: Recombinant Human DLL4 (R&D Systems Cat#1506-D4/CF) (human) (UniProt Q9NR61); experiment: as above
[16] = target: rHuman EGF R/Fc Chimera, CF (R&D Systems Cat#344-ER) (human) (UniProt P00533); experiment: MSD ECL multi-spot, Fab 0.43 uM, blank 879
[17] = target: rHuman HGF R/c-MET/Fc Chimera, CF (R&D Systems Cat#358-MT/CF) (human) (UniProt P08581); experiment: MSD ECL multi-spot, Fab 0.43 uM, blank 879
[18] = target: rHuman CD44/Fc Chimera, CF (R&D Systems Cat#3660-CD) (human) (UniProt P16070); experiment: MSD ECL multi-spot, Fab 0.43 uM, blank 879
[19] = target: rHuman P-Cadherin/Fc Chimera, CF (R&D Systems Cat#861-PC) (human) (UniProt P22223); experiment: ECL (MSD Multi-Spot) binding, antigen spotted on plate, Fab at 62.5 nM; blank spot 268
[20] = target: Recombinant Human DLL4 (R&D Systems Cat#1506-D4/CF) (human) (UniProt Q9NR61); experiment: as above
[21] = target: rHuman P-Cadherin/Fc Chimera, CF (R&D Systems Cat#861-PC) (human) (UniProt P22223); experiment: MSD ECL multi-spot assay, antigen spotted on plate, Fab 0.51 uM; blank spot 1393
[22] = target: rHuman Notch-1/Fc Chimera, CF (R&D Systems Cat#3647-TK) (human) (UniProt P46531); experiment: as above
[23] = target: rHuman Erythropoietin R/Fc Chimera, CF (R&D Systems Cat#963-ER) (human) (UniProt P19235); experiment: as above
Sequence of rHuman Erythropoietin R/Fc Chimera, CF (R&D Systems Cat#963-ER) (human) (P19235 25-250, change not shown): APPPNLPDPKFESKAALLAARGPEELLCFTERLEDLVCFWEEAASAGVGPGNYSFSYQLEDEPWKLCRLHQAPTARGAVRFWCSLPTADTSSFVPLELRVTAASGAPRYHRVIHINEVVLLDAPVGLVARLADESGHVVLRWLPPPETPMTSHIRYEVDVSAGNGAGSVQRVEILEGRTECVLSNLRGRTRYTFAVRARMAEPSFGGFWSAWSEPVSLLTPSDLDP

[24] = target: rHuman EGF R/Fc Chimera, CF (R&D Systems Cat#344-ER) (human) (UniProt P00533); experiment: as above
[25] = target: rHuman P-Cadherin/Fc Chimera, CF (R&D Systems Cat#861-PC) (human) (UniProt P22223); experiment: ECL (MSD Multi-Spot) binding assay, antigen spotted on plate; Fab 51 nM; blank spot 335
[26] = target: rHuman P-Cadherin/Fc Chimera, CF (R&D Systems Cat#861-PC) (human) (UniProt P22223); experiment: ECL (MSD Multi-Spot) binding assay, antigen spotted on plate; Fab 154 nM; blank spot 447
[27] = target: rHuman P-Cadherin/Fc Chimera, CF (R&D Systems Cat#861-PC) (human) (UniProt P22223); experiment: ECL (MSD Multi-Spot) binding assay, antigen spotted on plate; Fab 17 nM; blank spot 143
[28] = target: rHuman P-Cadherin/Fc Chimera, CF (R&D Systems Cat#861-PC) (human) (UniProt P22223); experiment: ECL (MSD Multi-Spot) binding assay, antigen spotted on plate; Fab 6 nM; blank spot 191

ECL signal [1]: 6310 | ECL signal [2]: 5470 | ECL signal [3]: 6940
Substance: Fab VH1-46_IGHD6-13*01_IGHJ4*01 & A27_IGKJ1*01

ECL signal [4]: 528 | ECL signal [5]: 3450 | ECL signal [6]: 2320 | ECL signal [7]: 971 | ECL signal [8]: 525 | ECL signal [9]: 4500 | ECL signal [10]: 2780 | ECL signal [11]: 912 | ECL signal [12]: 695 | ECL signal [13]: 407 | ECL signal [14]: 2780 | ECL signal [15]: 1560 | ECL signal [16]: 1230 | ECL signal [17]: 1140 | ECL signal [18]: 1500 | ECL signal [19]: 1170 | ECL signal [20]: 715
Substance: Fab VH1-46_IGHD6-13*01_IGHJ4*01 & B3_IGKJ1*01

ECL signal [21]: 3180 | ECL signal [22]: 2880 | ECL signal [23]: 2560 | ECL signal [24]: 1810
Substance: Fab VH4-34_IGHD7-27*01_IGHJ4*01 & L5_IGKJ1*01

ECL signal [25]: 854 | ECL signal [26]: 1730 | ECL signal [27]: 542 | ECL signal [28]: 358
Substance: Fab VH5-51_IGHD5-18*01>3_IGHJ4*01 & V3-4_IGLJ1*01
